Measurements published in patent US8597922B2, “Methods and compositions for producing olefins” (LS9, Inc., priority 2007, dated 2013).

Test: Specific activity of α-olefin and α/β-hydroxy fatty acid formation by purified enzymes
Assay type: biochemical
Details: 500 μM H2O2, 200 μM potassium hexadecanoate
Procedure: The specific activity of α-olefin formation as well as α-(2) and β-(3)hydroxy fatty acid formation were determined for ORF880, CYP152A1, and CYP152A1 Q85H (see Examples 12 and 16). An E. coli BL21 strain (DE3) (Invitrogen) was transformed with either pET15b-orf 880, pET15b-cyp152A1, and pET15b-cyp152A1 Q85H using routine chemical transformation techniques. Protein expression was carried out by first inoculating a colony of the E. coli strain in 5 mL of LB media supplemented with 100 mg/L of carbenicillin and shaken overnight at 37° C. to produce a starter culture. This starter culture was used to inoculate 0.5 L of LB media supplemented with 100 mg/L of carbenicillin. The culture was shaken at 37° C. until an OD600 value of 0.6 was reached. The culture was placed on ice for 10 min before IPTG was added to a final concentration of 250 μM. The culture was shaken at 25° C. for approximately 18 h, and then centrifuged at 3,700 rpm for 20 min at 4° C. The pellet was then resuspended in 10 mL of buffer containing 100 mM sodium phosphate buffer at pH 7.2 supplemented with Bacterial ProteaseArrest (GBiosciences). The cells were then sonicated at 12 W on ice for 9 sec with 1.5 sec of sonication followed by 1.5 sec of rest. This procedure was repeated 5 times with one min intervals between each sonication cycle. The cell free extract was centrifuged at 10,000 rpm for 30 min at 4° C. 5 mL of Ni-NTA (Qiagen) was added to the supernatant, and the mixture was gently stirred at 4° C. The slurry was passed over a column removing the resin from the lysate. The resin was then washed with 30 mL of buffer containing 100 mM sodium phosphate buffer at pH 7.2 plus 30 mM imidazole. Finally, the protein was eluted with 15 mL of 100 mM sodium phosphate buffer at pH 7.2 plus 250 mM imidazole. The protein solution was dialyzed with 200 volumes of 100 mM sodium phosphate buffer at pH 7.2 with 20% glycerol. Protein concentration was determined using the Bradford assay (Biorad). 578 μg/mL of ORF880, 865 μg/mL of CYP152A1, and 653 μg/mL of CYP152A1 Q85H protein was obtained.
To determine the specific activity with potassium hexadecanoate, the following reactions were set-up where each time point consisted of 500 μL. Each reaction contained of 500 μM H2O2, 200 μM of potassium hexadecanoate, 100 mM sodium phosphate buffer at pH 7.2, and protein at the following concentrations: ORF880-0.23 or 0.46 μM; CYP152A1-8.65, 17.3, or 34.6 μM; CYP152A1 Q85H-6.53, 13.06, or 26.12 μM. The reactions were carried out at room temperature and time points were taken at 0, 1, 3, 5, 7, 10, 14, and 20 minutes. Reactions were quenched with 50 μL of 12 M HCl and then extracted with 200 μL of ethyl acetate. 50 μL of this extract was then reacted with 50 μL N,O-Bis(trimethylsilyl)trifluoroacetamide with trimethyl-chlorosilane (Aldrich). Samples were analyzed using GC/MS using the following parameters: run time: 20 min; column: HP-5-MS Part No. 190915-433E (length of 30 meters; I.D.: 0.25 mm narrowbore; film: 0.25 μM); inject: 1 μL Agilent 6850 inlet; inlet: 300° C. splitless; carrier gas: helium; flow: 1.3 mL/min; oven temp: 100° C. hold 5 min, 320° C. at 20° C./min, 320° C. hold 5 min; det: Agilent 5975B VL MSD; det. temp: 300° C.; scan: 50-500 M/Z. Calibration curves were generated using 1-pentadecene, α(2)-hydroxyhexadecanoic acid, and β(3)-hydroxyhexadecanoic acid dissolved in ethyl acetate and derivatized as described herein.
Based upon this analysis, product formation was determined to be linear within the first three minutes. The specific activities for each enzyme concentration in the linear range were averaged for a given reaction (e.g., decarboxylation, α-hydroxylation, or β-hydroxylation). FIG. 21 summarizes the results. The specific activity for 1-pentadecene formation was similar for ORF880 and CYP152A1. Mutating the glutamine 85 residue to a histidine increased the specific activity of 1-pentadecene formation (i.e., increased fatty acid decarboxylase activity). […]

B1: ORF880: olefin-producing enzyme (fatty acid decarboxylase) from Jeotgalicoccus sp. ATCC 8456, SEQ ID NO:2 (protein)
chain: MATLKRDKGLDNTLKVLKQGYLYTTNQRNRLNTSVFQTKALGGKPFVVVTGKEGAEMFYNNDVVQREGMLPKRIVNTLFGKGAIHTVDGKKHVDRKALFMSLMTEGNLNYVRELTRTLWHANTQRMESMDEVNIYRESIVLLTKVGTRWAGVQAPPEDIERIATDMDIMIDSFRALGGAFKGYKASKEARRRVEDWLEEQIIETRKGNIHPPEGTALYEFAHWEDYLGNPMDSRTCAIDLMNTFRPLIAINRFVSFGLHAMNENPITREKIKSEPDYAYKFAQEVRRYYPFVPFLPGKAKVDIDFQGVTIPAGVGLALDVYGTTHDESLWDDPNEFRPERFETWDGSPFDLIPQGGGDYWTNHRCAGEWITVIIMEETMKYFAEKITYDVPEQDLEVDLNSIPGYVKSGFVIKNVREVVDRT
modifications: Jeotgalicoccus sp. ATCC8456
rate of hydroxyhexadecanoic acid production relative to the rates of the two CYP152A1 enzymes: about 1/50 | specific activity for 1-pentadecene formation (pH 7.2, room temperature, comparison between enzymes): similar
